This is an account of results in PMC10589721 (Proceedings of the National Academy of Sciences of the …, 2023).

Read-outs that look alike come from different tables or passages of the source. No end group written: not given here. *: point of attachment. Biotin = O=C1N[C@H]2[C@H](CS[C@H]2CCCCC(=O)*)N1; Ahx = NCCCCCC(=O)O

For orientation: Ki means the equilibrium dissociation constant of an inhibitor or competing ligand from its target. Usually Kd stands for the concentration at which binding is half-saturated. A low value points to a tighter complex.

Assay [1] concerns the target T1, full-length human OGT (Homo sapiens, UniProt O15294).
T1 sequence (O15294 1-1046): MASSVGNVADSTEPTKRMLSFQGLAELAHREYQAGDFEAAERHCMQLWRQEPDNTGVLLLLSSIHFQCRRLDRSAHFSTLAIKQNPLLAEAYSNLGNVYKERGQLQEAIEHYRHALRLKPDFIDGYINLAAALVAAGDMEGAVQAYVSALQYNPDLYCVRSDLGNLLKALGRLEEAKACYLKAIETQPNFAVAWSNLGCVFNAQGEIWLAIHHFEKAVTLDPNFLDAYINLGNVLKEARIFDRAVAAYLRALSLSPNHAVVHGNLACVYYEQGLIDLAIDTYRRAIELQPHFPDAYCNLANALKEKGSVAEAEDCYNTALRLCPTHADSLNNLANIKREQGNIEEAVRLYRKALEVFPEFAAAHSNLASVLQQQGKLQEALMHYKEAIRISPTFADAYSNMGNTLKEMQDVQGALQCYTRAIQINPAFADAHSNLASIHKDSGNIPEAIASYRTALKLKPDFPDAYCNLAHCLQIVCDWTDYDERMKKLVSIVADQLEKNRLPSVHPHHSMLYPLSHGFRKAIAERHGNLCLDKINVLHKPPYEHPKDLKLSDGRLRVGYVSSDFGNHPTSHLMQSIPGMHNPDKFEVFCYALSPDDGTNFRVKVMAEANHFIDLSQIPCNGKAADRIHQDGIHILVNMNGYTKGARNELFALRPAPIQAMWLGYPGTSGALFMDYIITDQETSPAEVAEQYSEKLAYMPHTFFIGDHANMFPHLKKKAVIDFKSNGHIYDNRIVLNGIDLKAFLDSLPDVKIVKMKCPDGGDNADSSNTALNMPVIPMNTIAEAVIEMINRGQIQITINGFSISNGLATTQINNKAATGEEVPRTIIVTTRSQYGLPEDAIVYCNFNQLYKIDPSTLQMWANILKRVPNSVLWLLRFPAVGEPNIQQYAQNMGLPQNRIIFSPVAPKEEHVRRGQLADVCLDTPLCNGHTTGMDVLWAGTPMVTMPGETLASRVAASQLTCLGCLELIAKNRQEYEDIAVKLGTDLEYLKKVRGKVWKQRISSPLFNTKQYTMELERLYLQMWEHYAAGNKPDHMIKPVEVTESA
Kind of assay: OGT inhibition assay. In kind it is biochemical.

Assay [2] deals with T2, O-GlcNAc transferase (OGT), as used in the fluorescence activity assay (human, UniProt O15294 1-1046).
T2 sequence (looked up): T1 sequence (O15294 1-1046)
The experiment in a line: enzyme inhibition kinetics.

Assay [3] deals with T2, O-GlcNAc transferase (OGT), as used in …. The experiment in a line: enzyme inhibition kinetics. The source holds these as a separate data set.
Assay [4] shares this target. Kind of assay: enzyme inhibition kinetics. The source holds these as a separate data set.
Assay [5] has as its target T3, OGT4.5 (crystallizable construct of O-GlcNAc transferase: catalytic region appended to 4.5 TPRs) (human, UniProt O15294 323-1041).
T3 sequence: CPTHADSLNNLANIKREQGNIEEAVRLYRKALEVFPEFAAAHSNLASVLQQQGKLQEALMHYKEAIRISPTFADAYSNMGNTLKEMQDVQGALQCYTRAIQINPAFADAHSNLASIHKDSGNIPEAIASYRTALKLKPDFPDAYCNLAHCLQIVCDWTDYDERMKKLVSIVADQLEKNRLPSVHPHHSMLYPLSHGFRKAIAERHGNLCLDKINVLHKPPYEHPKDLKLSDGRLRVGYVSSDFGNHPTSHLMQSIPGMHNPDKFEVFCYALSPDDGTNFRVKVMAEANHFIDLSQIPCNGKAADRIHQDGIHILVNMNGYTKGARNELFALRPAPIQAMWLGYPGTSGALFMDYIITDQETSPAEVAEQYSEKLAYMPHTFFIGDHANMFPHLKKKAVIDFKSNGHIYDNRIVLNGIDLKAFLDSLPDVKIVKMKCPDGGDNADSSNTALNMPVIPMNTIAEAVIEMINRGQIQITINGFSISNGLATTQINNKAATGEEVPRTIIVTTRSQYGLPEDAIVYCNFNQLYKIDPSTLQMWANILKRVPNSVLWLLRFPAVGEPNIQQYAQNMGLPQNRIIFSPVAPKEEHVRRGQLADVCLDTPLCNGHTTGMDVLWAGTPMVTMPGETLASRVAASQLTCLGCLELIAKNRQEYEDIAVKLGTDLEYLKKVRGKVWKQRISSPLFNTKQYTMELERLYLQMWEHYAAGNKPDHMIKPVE
Kind of assay: crystal structure.

For assay [6], the target named is T3, OGT4.5 (crystallizable construct of …). The experiment in a line: BLI. In general terms: Biolayer interferometry detects binding as a change in optical thickness at a sensor tip.

DDSDLYSPRYSFSED [repeat 2 of SORB1]: in assay [1], the “inhibition of OGT (in words)” value is on record as “none of these four peptides inhibited OGT”. The same measure, in the same setting: in the case of PEENPYFPTYKFPEL [repeat 1 of SORB1] it was “none of these four peptides inhibited OGT”; in that of PTSKAYSPRYSISDR [SOS1], “none of these four peptides inhibited OGT”. With RGLGEFTPLYPMLFG [SCLY], the “inhibition of OGT (in words)” value in assay [1] is “none of these four peptides inhibited OGT”. As to GDFPVMFMPKYSIIF [peptide P11], the values for the Ki in assay [2], in assay [3] and in assay [4] were 2.7 ± 0.3 µM, 4000 ± 900 µM and 3.8 ± 0.4 µM, respectively. As for FMPKYSI [truncated P11 peptide (tP11)], the binding result in assay [5] is on record as “binds”. The molecule {Biotin-Ahx}-GDFPVMFMPKYSIIF [biotinylated peptide P11 (Biotin-Ahx-GDFPVMFMPKYSIIF)] had a Kd in assay [6] of 0.47 ± 0.16 µM.
